For data set [1], the target named is N-NTD (SARS-CoV-2 (Wuhan-Hu-1), UniProt P0DTC9 46-174). Description: competition fluorescence anisotropy; probe N11; 10 mM Tris-HCl pH 7.4, 150 mM NaCl, 1 mM MgCl2; FA with 0.1 mg/ml BSA at 25 C; BLI with 0.05% Tween-20; SEC at ambient temperature. The note with it: protein: recombinant, tags: N-terminal 6xHis removed by HRV 3C.
Data set [2] addresses T1, N-NTD (SARS-CoV-2 (Wuhan-Hu-1), UniProt P0DTC9 46-174). The data set can be described thus: DSF; 10 mM Tris-HCl pH 7.4, 150 mM NaCl, 1 mM MgCl2; […]; BLI with 0.05% Tween-20; […].
The target in data set [3] is T1, N-NTD. Description: fluorescence anisotropy; 10 mM Tris-HCl pH 7.4, 150 mM NaCl, 1 mM MgCl2; […]; BLI with 0.05% Tween-20; […].
Data set [4] concerns the target T2, N protein full-length (SARS-CoV-2 (Wuhan-Hu-1), UniProt P0DTC9 1-419). The data set can be described thus: fluorescence anisotropy; Hill slope 0.91; 10 mM Tris-HCl pH 7.4, 150 mM NaCl, 1 mM MgCl2; FA with 0.1 mg/ml BSA at 25 C; BLI with 0.05% Tween-20; SEC at ambient temperature. Conditions: protein: recombinant, tags: 6xHis-thioredoxin removed by HRV 3C, chain copies: 2, label: […], 5' biotin in BLI, hairpin, 2 bp stem. (Polarisation of emitted light reports the rotation of a fluorescent probe.)

Data set [5] has as its target T2, N protein full-length. Description: BLI; immobilized DNA, avidity; 10 mM Tris-HCl pH 7.4, 150 mM NaCl, 1 mM MgCl2; FA with 0.1 mg/ml BSA at 25 C; BLI with 0.05% Tween-20; SEC at ambient temperature. The note with it: protein: recombinant, tags: 6xHis-thioredoxin removed by HRV 3C, chain copies: 2, hairpin.
Data set [6] addresses T1, N-NTD. Description: competition fluorescence anisotropy; probe N11; 10 mM Tris-HCl pH 7.4, 150 mM NaCl, 1 mM MgCl2; […]; BLI with 0.05% Tween-20; […].
Data set [7] deals with T2, N protein full-length. The data set can be described thus: fluorescence anisotropy; Hill slope 2.3; 10 mM Tris-HCl pH 7.4, 150 mM NaCl, 1 mM MgCl2; FA with 0.1 mg/ml BSA at 25 C; BLI with 0.05% Tween-20; SEC at ambient temperature. Conditions: protein: recombinant; tags: 6xHis-thioredoxin removed by HRV 3C; chain copies: 2; hairpin.
The target in data set [8] is T1, N-NTD. Description: fluorescence anisotropy; 1 mM Mg2+; 10 mM Tris-HCl pH 7.4, 150 mM NaCl, 1 mM MgCl2; […]; BLI with 0.05% Tween-20; […].
Data set [9] concerns the target T1, N-NTD. Description: competition fluorescence anisotropy; 10 mM Tris-HCl pH 7.4, 150 mM NaCl, 1 mM MgCl2; […]; BLI with 0.05% Tween-20; […].

B1: SL10 RNA (structured_RNA)
RNA: GUCCCUCAUGUGGGC
As to B1, in the data set with N-NTD [1] (stem-loop), the inhibitory constant (Ki) was 38700 nM.

B2: A58-20_nwb1 (ssDNA)
DNA: TCAGACATCGGATTGTCTGA
Turning to B2, the binding signal with N-NTD [2] was 4.5 C (Tm shift). In addition, in the data set with N-NTD [3], the Kd stood at 84.9 nM.

B3: A58-10 (ssDNA)
DNA: CATCGGATTG
In the case of B3, the Kd in the data set with N protein full-length [4] is 24.9 nM; with N protein full-length [5] (label: […], 5' biotin in BLI, […], 2 bp stem), 3.77 nM.

B4: A58-20_nwb2 (ssDNA)
DNA: TCGGACATCGGATTGTCCGA
Turning to B4, the binding signal with N-NTD [2] was 4.5 C (Tm shift). This molecule showed a Kd with N-NTD [3] of 87.9 nM.

B5: poly-dT15 (ssDNA)
DNA: TTTTTTTTTTTTTTT
On to B5, for which, in the data set with N-NTD [1], the Ki worked out at 4120 nM.

B6: poly-rU15 (ssRNA)
RNA: UUUUUUUUUUUUUUU
B6: in the data set with N-NTD [1], the inhibitory constant (Ki) was determined as 7800 nM.

B7: A58-20 TTTTTT (ssDNA)
DNA: TCGGACATTTTTTTGTCTGA
Turning to B7, the binding signal with N-NTD [2] was 0.5 C (Tm shift).

B8: A58-20 (ssDNA)
DNA: TCGGACATCGGATTGTCTGA
Turning to B8, the affinity with N-NTD [6], expressed as Ki, was 50.5 nM. For the same molecule, the Kd with N protein full-length [5] amounted to 0.0101 nM; with N protein full-length [7], 78.2 nM; with N-NTD [8], 101 nM.

B9: A58-20_RNA (ssRNA)
RNA: UCGGACAUCGGAUUGUCUGA
For the molecule B9, the binding signal in the data set with N-NTD [2] was -0.5 C (Tm shift). Also, the affinity in the data set with N-NTD [9] corresponds to a Ki of 90800 nM.

B10: SL9 RNA (structured_RNA)
RNA: UCAUGUUAUGGUUGA
As to B10, the Ki with N-NTD [1] (stem-loop) turned out to be 15400 nM.

B11: A58-20-iT6FAM (ssDNA)
DNA: TCGGACATCGGATTGTCTGA
modifications: fluorescein-dT (i6-FAMK) at position 13 (loop T6)
For B11, in the data set with N-NTD [3], the Kd worked out at 74 nM.

B12: A58-20-2'FG3 (XNA)
DNA: TCGGACATCGGATTGTCTGA
modifications: 2'-fluoro-dG at position 10 (loop G3)
With B12, the Kd with N-NTD [3] was found to be 74 nM.

B13: A58-8 (ssDNA)
DNA: ATCGGATT
Take B13: the binding result with N-NTD [6] is reported as “no binding”.

B14: A58 (A58-58) (ssDNA)
DNA: GCTGGATGTCACCGGATTGTCGGACATCGGATTGTCTGAGTCATATGACACATCCAGC
In the data set with N-NTD [6], B14 came in with a Ki of 9.92 nM.

B15: A58-20-2'FG3-iT6FAM (XNA)
DNA: TCGGACATCGGATTGTCTGA
modifications: 2'-fluoro-dG at position 10 (loop G3); i6-FAMK at position 13 (loop T6)
Consider B15, for which the Kd in the data set with N-NTD [3] came to 13.9 nM.

A word on the Ki: it is a measure of affinity in units of concentration, obtained from inhibition or displacement.
